± gives the uncertainty stated by the source.

Abundance fitness data for 35 variants are collected here from the Human Domainome abundance scans (Beltran et al. 2025).

B1: Segment polarity protein dishevelled homolog DVL-3, residues 2 to 81; numbered along this chain, Q92997 (parent)
chain: GETKIIYHLDGQETPYLVKLPLPAERVTLADFKGVLQRPSYKFFFKSMDDDFGVVKEEISDDNAKLPCFNGRVVSWLVSA

The data set covers variants of B1. Put plainly: abundance fitness (aPCA) (normalised: wild type 0, dead -1); higher = more abundant; growth selection in yeast, the domain comes from the species named. Conditions: Homo sapiens.
Regarding GETKIIYHLDGQETPYLVKLPLPAERVTLADFKGVVQRPSYKFFFKSMDDDFGVVKEEISDDNAKLPCFNGRVVSWLVSA [L36V], the abundance fitness was -0.187 ± 0.062. As for GETKIIYHLDGQETPYLVKLPLPAERVTLADFKGVTQRPSYKFFFKSMDDDFGVVKEEISDDNAKLPCFNGRVVSWLVSA [L36T], the figure is -0.824 ± 0.18. For GETKIIYHLDGQETPYLVKLPLPAERVTLADFKGVPQRPSYKFFFKSMDDDFGVVKEEISDDNAKLPCFNGRVVSWLVSA [L36P], the abundance fitness is -0.244 ± 0.12.

Consider GETKIIYHLDGQETPYLVKLPLPAERVTLADFKGVSQRPSYKFFFKSMDDDFGVVKEEISDDNAKLPCFNGRVVSWLVSA [L36S], for which the abundance fitness was -0.629 ± 0.11. Next, GETKIIYHLDGQETPYLVKLPLPAERVTLADFKGVFQRPSYKFFFKSMDDDFGVVKEEISDDNAKLPCFNGRVVSWLVSA [L36F]: 0.097 ± 0.1. As for GETKIIYHLDGQETPYLVKLPLPAERVTLADFKGVHQRPSYKFFFKSMDDDFGVVKEEISDDNAKLPCFNGRVVSWLVSA [L36H], the figure is -0.988 ± 0.47. Turning to GETKIIYHLDGQETPYLVKLPLPAERVTLADFKGVGQRPSYKFFFKSMDDDFGVVKEEISDDNAKLPCFNGRVVSWLVSA [L36G], the abundance fitness was -0.993 ± 0.11. On to GETKIIYHLDGQETPYLVKLPLPAERVTLADFKGVEQRPSYKFFFKSMDDDFGVVKEEISDDNAKLPCFNGRVVSWLVSA [L36E], for which the abundance fitness was -0.728 ± 0.14. As for GETKIIYHLDGQETPYLVKLPLPAERVTLADFKGVMQRPSYKFFFKSMDDDFGVVKEEISDDNAKLPCFNGRVVSWLVSA [L36M], the figure is -0.465 ± 0.12. Next, GETKIIYHLDGQETPYLVKLPLPAERVTLADFKGVAQRPSYKFFFKSMDDDFGVVKEEISDDNAKLPCFNGRVVSWLVSA [L36A]: -0.785 ± 0.12; GETKIIYHLDGQETPYLVKLPLPAERVTLADFKGVRQRPSYKFFFKSMDDDFGVVKEEISDDNAKLPCFNGRVVSWLVSA [L36R]: -0.528 ± 0.067; GETKIIYHLDGQETPYLVKLPLPAERVTLADFKGVKQRPSYKFFFKSMDDDFGVVKEEISDDNAKLPCFNGRVVSWLVSA [L36K]: -0.725 ± 0.17. As for GETKIIYHLDGQETPYLVKLPLPAERVTLADFKGVNQRPSYKFFFKSMDDDFGVVKEEISDDNAKLPCFNGRVVSWLVSA [L36N], the figure is -0.522 ± 0.26.

For the variant GETKIIYHLDGQETPYLVKLPLPAERVTLADFKGVCQRPSYKFFFKSMDDDFGVVKEEISDDNAKLPCFNGRVVSWLVSA [L36C], the abundance fitness was -0.563 ± 0.23. As to GETKIIYHLDGQETPYLVKLPLPAERVTLADFKGVDQRPSYKFFFKSMDDDFGVVKEEISDDNAKLPCFNGRVVSWLVSA [L36D], the abundance fitness is -0.37 ± 0.14. As to GETKIIYHLDGQETPYLVKLPLPAERVTLADFKGVQQRPSYKFFFKSMDDDFGVVKEEISDDNAKLPCFNGRVVSWLVSA [L36Q], the abundance fitness is -0.668 ± 0.22. Next, GETKIIYHLDGQETPYLVKLPLPAERVTLADFKGVLFRPSYKFFFKSMDDDFGVVKEEISDDNAKLPCFNGRVVSWLVSA [Q37F]: -0.433 ± 0.13; GETKIIYHLDGQETPYLVKLPLPAERVTLADFKGVLIRPSYKFFFKSMDDDFGVVKEEISDDNAKLPCFNGRVVSWLVSA [Q37I]: -0.179 ± 0.11; GETKIIYHLDGQETPYLVKLPLPAERVTLADFKGVLGRPSYKFFFKSMDDDFGVVKEEISDDNAKLPCFNGRVVSWLVSA [Q37G]: 0.048 ± 0.042. Turning to GETKIIYHLDGQETPYLVKLPLPAERVTLADFKGVLLRPSYKFFFKSMDDDFGVVKEEISDDNAKLPCFNGRVVSWLVSA [Q37L], the abundance fitness is -0.154 ± 0.049. Next, GETKIIYHLDGQETPYLVKLPLPAERVTLADFKGVLNRPSYKFFFKSMDDDFGVVKEEISDDNAKLPCFNGRVVSWLVSA [Q37N]: 0.122 ± 0.089; GETKIIYHLDGQETPYLVKLPLPAERVTLADFKGVLARPSYKFFFKSMDDDFGVVKEEISDDNAKLPCFNGRVVSWLVSA [Q37A]: -0.1 ± 0.051; GETKIIYHLDGQETPYLVKLPLPAERVTLADFKGVLVRPSYKFFFKSMDDDFGVVKEEISDDNAKLPCFNGRVVSWLVSA [Q37V]: -0.124 ± 0.054. Next, GETKIIYHLDGQETPYLVKLPLPAERVTLADFKGVLHRPSYKFFFKSMDDDFGVVKEEISDDNAKLPCFNGRVVSWLVSA [Q37H]: -0.073 ± 0.096; GETKIIYHLDGQETPYLVKLPLPAERVTLADFKGVLERPSYKFFFKSMDDDFGVVKEEISDDNAKLPCFNGRVVSWLVSA [Q37E]: 0.048 ± 0.058. Turning to GETKIIYHLDGQETPYLVKLPLPAERVTLADFKGVLTRPSYKFFFKSMDDDFGVVKEEISDDNAKLPCFNGRVVSWLVSA [Q37T], the abundance fitness is -0.067 ± 0.065.

As for GETKIIYHLDGQETPYLVKLPLPAERVTLADFKGVLMRPSYKFFFKSMDDDFGVVKEEISDDNAKLPCFNGRVVSWLVSA [Q37M], the abundance fitness was -0.048 ± 0.078. As for GETKIIYHLDGQETPYLVKLPLPAERVTLADFKGVLPRPSYKFFFKSMDDDFGVVKEEISDDNAKLPCFNGRVVSWLVSA [Q37P], the figure is 0.092 ± 0.055. As for GETKIIYHLDGQETPYLVKLPLPAERVTLADFKGVLKRPSYKFFFKSMDDDFGVVKEEISDDNAKLPCFNGRVVSWLVSA [Q37K], the figure is 0.165 ± 0.062; as for GETKIIYHLDGQETPYLVKLPLPAERVTLADFKGVLCRPSYKFFFKSMDDDFGVVKEEISDDNAKLPCFNGRVVSWLVSA [Q37C], -0.078 ± 0.073; as for GETKIIYHLDGQETPYLVKLPLPAERVTLADFKGVLDRPSYKFFFKSMDDDFGVVKEEISDDNAKLPCFNGRVVSWLVSA [Q37D], 0.225 ± 0.066. Next, GETKIIYHLDGQETPYLVKLPLPAERVTLADFKGSLQRPSYKFFFKSMDDDFGVVKEEISDDNAKLPCFNGRVVSWLVSA [V35S]: -0.257 ± 0.073; GETKIIYHLDGQETPYLVKLPLPAERVTLADFKGTLQRPSYKFFFKSMDDDFGVVKEEISDDNAKLPCFNGRVVSWLVSA [V35T]: -0.167 ± 0.074; GETKIIYHLDGQETPYLVKLPLPAERVTLADFKGQLQRPSYKFFFKSMDDDFGVVKEEISDDNAKLPCFNGRVVSWLVSA [V35Q]: -0.218 ± 0.085. On to GETKIIYHLDGQETPYLVKLPLPAERVTLADFKGYLQRPSYKFFFKSMDDDFGVVKEEISDDNAKLPCFNGRVVSWLVSA [V35Y], for which the abundance fitness is -0.212 ± 0.14.
